US7521047 (GPC BIOTECH, dated 2009)

Experiments:
[1] = target: T1, human MHC class II DR protein (DRA*0101/DRB1*0401), purified from PRIESS cells (human, UniProt P01903 26-254; P01911 30-266, limits assumed); experiment: ELISA, coated antigen, Fab 100 ng/well, read at 370 nm
T1 construct: mature; also called HLA-DR protein; MHCII
T1 MHC II alpha: not shown
T1 MHC II beta: not shown
Procedure: After washing in PBS the anti-human IgG F(ab')_2-peroxidase-conjugate at a 1:10,000 dilution in TBS (supplemented with 5% w/v non-fat drymilk/0.05% v/v Tween 20) was added to each well for 1 h. Final washes were carried out in PBS followed the addition the substrate POD (Roche).

[2] = target: T2, chimeric 0401-IE class II molecule on cells of transgenic mice (human/murine chimera); experiment: cell-based or functional assay
[3] = target: T1, human MHC class II DR protein …; experiment: SPR (BIAcore), MHCII on CM5 chip
[4] = target: T1, human MHC class II DR protein …; experiment: SPR (BIAcore), MHCII on CM5 chip
[5] = target: T1, human MHC class II DR protein …; experiment: BiaCore, Fab
HLA-DR on LG-2 cells = HLA-DR on LG-2 cells (human); experiment: cell-based or functional assay
[6] = target: T3, HLA-DR (DRA*0101/DRB1*0401) on PRIESS cells (human, UniProt P01903 26-254; P01911 30-266); experiment: cell-based or functional assay
T3 MHC II alpha: not shown
T3 MHC II beta: not shown

[7] = target: T1, human MHC class II DR protein …; experiment: SPR (BIAcore), IgG4 over MHCII on CM5 chip
[8] = target: T1, human MHC class II DR protein …; experiment: BiaCore, IgG4
Procedure: The affinities for anti-HLA antibody fragments of the invention were measured as follows. All measurements were conducted in HBS buffer (20 mM HEPES, 150 mM NaCl, pH 7.4) at a flow rate of 20 µl/min at 25° C. on a BIAcore3000 instrument (Biacore AB, Sweden). MHC class II DR protein (prepared as example 1) was diluted in 100 mM sodium acetate pH 4.5 to a concentration of […], and coupled to a CM5 chip (Biacore AB) using standard EDC-NHS coupling chemistry with subsequent ethanolamine treatment as manufacturers directions. The coating density of MHCII was adjusted to between 500 and 4000 RU. Affinities were measured by injection of 5 different concentrations of the different antibodies and using the standard software of the Biacore instrument. Regeneration of the coupled surface was achieved using 10 mM glycine pH 2.3 and 7.5 mM NaOH.

BSA [9] = target: T4, BSA (bovine, UniProt P02769 25-607); experiment: ELISA, purified coated protein, OD at 370 nm minus background
T4 construct: negative control antigen; also called bovine serum albumine

[10] = target: T2, chimeric 0401-IE class II molecule on …; experiment: cell-based or functional assay; remark: listed apart in the source
HLA-DR on L-363 cells = HLA-DR on L-363 cells (human); experiment: cell-based or functional assay
[11] = target: HLA-DR on MHH-CALL-4 cells (human); experiment: cell-based or functional assay
HLA-DR on HD-MY-Z cells = HLA-DR on HD-MY-Z cells (human); experiment: cell-based or functional assay
[12] = target: HLA-DR on KARPAS-422 cells (human); experiment: cell-based or functional assay
HLA-DR on MN-60 cells = HLA-DR on MN-60 cells (human); experiment: cell-based or functional assay
HLA-DR on HDLM-2 cells = HLA-DR on HDLM-2 cells (human); experiment: cell-based or functional assay
HLA-DR on DOHH-2 cells = HLA-DR on DOHH-2 cells (human); experiment: cell-based or functional assay
HLA-DR on KM-H2 cells = HLA-DR on KM-H2 cells (human); experiment: cell-based or functional assay
HLA-DR on ARH-77 cells = HLA-DR on ARH-77 cells (human); experiment: cell-based or functional assay
HLA-DR on RAJI cells = HLA-DR on RAJI cells (human); experiment: cell-based or functional assay
HLA-DR on HC-1 cells = HLA-DR on HC-1 cells (human); experiment: cell-based or functional assay
HLA-DR on L-428 cells = HLA-DR on L-428 cells (human); experiment: cell-based or functional assay
[13] = target: HLA-DR on GRANTA-519 cells (human); experiment: cell-based or functional assay
HLA-DR on BONNA-12 cells = HLA-DR on BONNA-12 cells (human); experiment: cell-based or functional assay
HLA-DR on BJAB cells = HLA-DR on BJAB cells (human); experiment: cell-based or functional assay
HLA-DR on L1236 cells = HLA-DR on L1236 cells (human); experiment: cell-based or functional assay
HLA-DR on SR-786 cells = HLA-DR on SR-786 cells (human); experiment: cell-based or functional assay
[14] = target: T3, HLA-DR (DRA*0101/DRB1*0401) on PRIESS …; experiment: cell-based or functional assay
HLA-DR on LP-1 cells = HLA-DR on LP-1 cells (human); experiment: cell-based or functional assay
[15] = target: HLA-DR on RPMI-8226 cells (human); experiment: cell-based or functional assay
HLA-DR on EOL-1 cells = HLA-DR on EOL-1 cells (human); experiment: cell-based or functional assay
[16] = target: HLA-DR on MHH-PREB-1 cells (human); experiment: cell-based or functional assay
[17] = target: HLA-DR on KARPAS-299 cells (human); experiment: cell-based or functional assay
HLA-DR on NALM-1 cells = HLA-DR on NALM-1 cells (human); experiment: cell-based or functional assay
BSA [18] = target: T4, BSA; experiment: ELISA, coated antigen
[19] = target: T1, human MHC class II DR protein …; experiment: SPR (BIAcore), Fab, chip density 500 RU MHCII

T4 sequence (P02769 25-607 limits assumed): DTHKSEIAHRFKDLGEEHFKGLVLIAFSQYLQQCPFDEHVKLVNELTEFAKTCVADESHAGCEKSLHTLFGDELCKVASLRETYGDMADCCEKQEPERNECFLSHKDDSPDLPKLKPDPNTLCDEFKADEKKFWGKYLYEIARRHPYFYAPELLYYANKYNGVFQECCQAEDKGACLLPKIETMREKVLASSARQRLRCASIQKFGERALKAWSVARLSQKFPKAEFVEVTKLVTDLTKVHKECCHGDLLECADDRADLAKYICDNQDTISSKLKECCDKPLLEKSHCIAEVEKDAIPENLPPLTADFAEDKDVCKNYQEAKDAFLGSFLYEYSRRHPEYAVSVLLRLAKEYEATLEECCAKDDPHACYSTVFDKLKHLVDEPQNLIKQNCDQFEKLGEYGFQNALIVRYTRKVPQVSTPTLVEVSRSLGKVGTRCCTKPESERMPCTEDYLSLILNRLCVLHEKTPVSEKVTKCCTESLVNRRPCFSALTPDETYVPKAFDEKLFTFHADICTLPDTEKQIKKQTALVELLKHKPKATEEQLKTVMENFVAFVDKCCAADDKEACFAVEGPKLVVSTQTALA

B1: MS-GPC-8-27-41 Fab (Fab, V domains shown)
VH: QVQLKESGPALVKPTQTLTLTCTFSGFSLSTSGVGVGWIRQPPGKALEWLALIDWDDDKYYSTSLKTRLTISKDTSKNQVVLTMTNMDPVDTATYYCARSPRYRGAFDYWGQGTLVTVSS
VL: DIVLTQPPSVSGAPGQRVTISCSGSESNIGNNYVQWYQQLPGTAPKLLIYDNNQRPSGVPDRFSGSKSGTSASLAITGLQSEDEADYYCQSYDMNVHVFGGGTKLTVLG
notes: Fab: VH-CH1 with FLAG tag and STREP tag II, VL-CL; VH residue 1 is Q in Fab; also called 1D09C3
ELISA signal [1]: 1.52
IC50 of inhibition of IL-2 secretion from T-Hyb 1 cells [2]: 3.6 nM (half the concentration of the Fab)
Maximum inhibition(%) of IL-2 secretion [2]: 100%
Kd [3]: 2.93 nM
koff [3]: 0.00049 s⁻¹
kon [3]: 167000 M⁻¹ s⁻¹
Kd [4]: 2.9 nM
koff [4]: 0.00049 s⁻¹
kon [4]: 170000 M⁻¹ s⁻¹
Kd [5]: 2.93 nM
koff [5]: 0.00049 s⁻¹
kon [5]: 167000 M⁻¹ s⁻¹
EC50 of cell killing, cross-linked Fab, bivalent agent (HLA-DR on LG-2 cells): 7.2 nM
EC50 of cell killing, cross-linked Fab, bivalent agent [6]: 7.7 nM

B2: MS-GPC-8-27-41 IgG4 (antibody, V domains shown)
VH: QVQLKESGPALVKPTQTLTLTCTFSGFSLSTSGVGVGWIRQPPGKALEWLALIDWDDDKYYSTSLKTRLTISKDTSKNQVVLTMTNMDPVDTATYYCARSPRYRGAFDYWGQGTLVTVSS
VL: DIVLTQPPSVSGAPGQRVTISCSGSESNIGNNYVQWYQQLPGTAPKLLIYDNNQRPSGVPDRFSGSKSGTSASLAITGLQSEDEADYYCQSYDMNVHVFGGGTKLTVLG
notes: also called 1D09C3; IgG form of MS-GPC-8-27-41
Kd [7]: 0.31 nM
koff [7]: 3.1e-05 s⁻¹
kon [7]: 110000 M⁻¹ s⁻¹
IC50 of inhibition of IL-2 secretion from T-Hyb 1 cells [2]: 0.28 nM
Maximum inhibition(%) of IL-2 secretion [2]: 100%
Kd [8]: 0.6 nM
koff [8]: 0.00041 s⁻¹
binding result (BSA [9]): no binding
IC50 value for inhibition of T cell proliferation [10]: 20 nM
% Killing by mAb, 50 nM, 4 h (HLA-DR on L-363 cells): 26%
% Killing by mAb, 50 nM, 4 h [11]: 63%
% Killing by mAb, 50 nM, 4 h (HLA-DR on HD-MY-Z cells): 69%
% Killing by mAb, 50 nM, 4 h [12]: 66%
% Killing by mAb, 50 nM, 4 h (HLA-DR on MN-60 cells): 69%
% Killing by mAb, 50 nM, 4 h (HLA-DR on HDLM-2 cells): 88%
% Killing by mAb, 50 nM, 4 h (HLA-DR on DOHH-2 cells): 59%
% Killing by mAb, 50 nM, 4 h (HLA-DR on KM-H2 cells): 86%
% Killing by mAb, 50 nM, 4 h (HLA-DR on ARH-77 cells): 85%
% Killing by mAb, 50 nM, 4 h (HLA-DR on RAJI cells): 84%
% Killing by mAb, 50 nM, 4 h (HLA-DR on HC-1 cells): 93%
% Killing by mAb, 50 nM, 4 h (HLA-DR on L-428 cells): 91%
% Killing by mAb, 50 nM, 4 h [13]: 78%
% Killing by mAb, 50 nM, 4 h (HLA-DR on BONNA-12 cells): 92%
% Killing by mAb, 50 nM, 4 h (HLA-DR on BJAB cells): 71%
% Killing by mAb, 50 nM, 4 h (HLA-DR on L1236 cells): 63%
% Killing by mAb, 50 nM, 4 h (HLA-DR on SR-786 cells): 53%
% Killing by mAb, 50 nM, 4 h [14]: 88%
% Killing by mAb, 50 nM, 4 h (HLA-DR on LP-1 cells): 73%
% Killing by mAb, 50 nM, 4 h [15]: 29%
% Killing by mAb, 50 nM, 4 h (HLA-DR on EOL-1 cells): 69%
% Killing by mAb, 50 nM, 4 h [16]: 4%
% Killing by mAb, 50 nM, 4 h [17]: 82%
% Killing by mAb, 50 nM, 4 h (HLA-DR on NALM-1 cells): 82%
EC50 of cell killing, IgG4 [6]: 1.1 nM

B3: MS-GPC-10 Fab (Fab, V domains shown)
VH: QVQLKESGPALVKPTQTLTLTCTFSGFSLSTSGVGVGWIRQPPGKALEWLALIDWDDDKYYSTSLKTRLTISKDTSKNQVVLTMTNMDPVDTATYYCARQLHYRGGFDLWGQGTLVTVSS
VL: DIVLTQPPSVSGAPGQRVTISCSGSSSNIGSNYVSWYQQLPGTAPKLLIYDNNQRPSGVPDRFSGSKSGTSASLAITGLQSEDEADYYCQSYDLTMGVFGGGTKLTVLG
notes: Fab from pMx9_Fab: VH-CH1 with FLAG tag and STREP tag II, VL-CL; VH residue 1 is Q in Fab; also called E6-Fab; E6
binding result (BSA [18]): no binding
Kd [19]: 2860 nM
koff [19]: 0.063 s⁻¹
kon [19]: 22000 M⁻¹ s⁻¹
EC50 of cell killing, cross-linked Fab, bivalent agent [6]: 33 nM
